A short description of this data set: soluble on expression in E. coli; label from the status in PepcDB or PDB records.
Turning to “MKSKLICIIMVIAFQAHFTMTVKADSVGEEKLQNNTQAKKTPADLKALPDSCEAKDFYKNFKILDMTKDKLGVTHYTLALSSGGYLTDNDEIKVHVTPDNKITFINGDLQQGQLRITNQIKITEKNAIEKAFEAIGQSEAHVKSYVGNPVKEKEIILNSRTKRLVYNIKLIFAEPEVASWIVQVDVETGAILKKQNMLSEVERADTHKDFQALGKGANRLLQRPLHVMKINDLFYLVDRTHKGLIRTFDLKHNTDTSFGKVVSNKTNMFTDPEFSSAVDAHFYASEVYEYYKNVHQLESLDGKGGEIDSFVHYGLNCNNAFWDGQEILYGDGDKKNFKPFSCAKTIVGHELTHAVIQYSAGLEYEGQSGALNESFADVFGYFIAPNHWLIGEDVCVRGSRDGRIRSIKDPDKYNQAAHMKDYESLPLTEEGDWGGVHYNSGIPNKAAYNTITKLGKEKTEQLYFRALKYYLTKKSQFTDAKKALQQAAKDLYGEDASKKVAEAWEAVGVN”, the “soluble on expression in E. coli” value is recorded as “not soluble”.

Turning to “MSILHTVNKSPFERNSLESCLKFATEGASVLLFEDGIYAALAGTRVESQVTEALGKLKLYVLGPDLKARGFSDERVIPGISVVDYAGFVDLTTECDTVQAWL”, the “soluble on expression in E. coli” value is given as “soluble”.

Regarding “MGSDKIHHHHHHMRIVHISDLHFGEELIREKVEKAVRQINEIEPDLLVITGDLSCWGIHSEMRDAYETLLDLKPDYIAVPGNHDARNIGYEFFQLYFGETKKYWKNDVVSLIAADSTQPDLDDGYIGKEQRDWIVSKIRKDRFNILALHHHIAPIPKTGRERNVLIDAGEMVELLIANGISAVLAGHRHMPYSLRLMRTHVIHAGTLGSFKVLGMPDHNYNVIEIKDNTLTLKLRFVDYGEVEIGRYTINPETPESISVYQRIAKPKKVLFLSRSNDCRTKIAEAIFNHISPNNMLAVSAGIEPAQDLDLRAVATMRELGLKINGKPRKFSEDMVSDFDAIVEFDELGVGEFWDVKKPSSAEEYREVRSEIWRRVEELVKRLLA”, the “soluble on expression in E. coli” value is recorded as “not soluble”.

In the case of “MSIINDENGRGYKVHLCKTNIAQNNNKFYDMELLDEGGDFIVKLINGRIGYRGVTQLKDFDDLDRAKKFFESKFYEKTHLHWEERDDEPVPNKYAVVELATNARQTEKEVKKEEPEPEPKVDEKNTRGRKKRGIVKEKKEIKKEEEPVEEVNEKLKELMKCICDEDVHLGLLKQLKFNEAFGRPIDCLSLAQLTTGYEILSKIEESIGGKSARRSTRGRPRVADRVLAVKSDGPSLHDINKYYSLIPHSFGFCVPPKIDSHAKIQAERELLDALKGSIEASLELKDLKKTASSKDIYQRLYERLPCHLEPVSEEIAGKIGDCLAMRGPTHCYKLSLIDAFELKDPNEIPTEAPVEVQEVPKKRGRKSTKTAAPTVPPPTTKRLLWHGTRVTNVFSILMNGLQFPVGDRCGLMFGNGVYFANVPTKSANYCCPEASKRVFMLLCEVETANPLVLYESEIDADEKMEKAKKTSVYAAGKHTPRDTVEINGIPAFKSNLETIEEETRLLYDEYVMFNKEHFKIKYVVEVKVDRLTAKEMMA”, the “soluble on expression in E. coli” value was “not soluble”.

“GMMNKPAPRELEVIRSTYITPHMLRITLGGAGLAGFPADQESAYIKLLFPQAGERPLMRTYTIRQQRDDEIDVDFVLHDTDGPASSWAKTAQVGELIQIGGPGLKKLINFEADWFLLAGDMTALPAISVNLAKLPNNAVGYAVIEVLSEADIQPLVHPEHVELHWVINPEADPEGRPLVERIAQLPWLAGEPAVWIACEFNSMRALRRHFKQAHALPKSHFYTSSYWKIGCNEGEHKLVKQEDEQLENGASV”: the “soluble on expression in E. coli” value is given as “soluble”.

On to “ELVMTQSPLSLPVSLGDQASISCRPSQSLVHSNGNTYLHWYLQKPGQSPKLLIYRVSNRFSGVPDRFSGSGSGTAFTLKISRVEAEDLGVYFCSQGTHVPYTFGGGTKLELKRADAAPTVSIFPPSSEQLTSGGASVVCFLNNFYPKDINVKWKIDGSERQNGVLNSWTDQDSKDSTYSMSSTLTLTKDEYERHNSYTCEATHKTSTSPIVKSFNRNEC”, for which the “soluble on expression in E. coli” value is reported as “soluble”.

Take “MGHHHHHHSHMLSHFETNSALLEQLSELQGSTEPFLTEHPHMAAEHTVNWLTIAALSSAIDKNEEKLAALSEKCVVFQLFLASATGQKQFFKKFEVSENLDEVKAFKSRMRSRAQAKGEKPEKINLNQGTVDSRQFLEELKQLENLKKVRFIGKFVRKLILIVKFKFYE”: the “soluble on expression in E. coli” value is “not soluble”.

Turning to “MFSPEQIAGKDVRLLRIKKEGSLDLALEGGVDSPVGKVVVSAVYEGGAAERHGGVVKGDEIMAINGKIVTDYTLAEAEAALQKAWNQGGDWIDLVVAVCPPKEYDDELTFF”, the “soluble on expression in E. coli” value is on record as “soluble”.

“MDPQGYFLWYQVEMPEDRVNDLARELRIRDNVRRVMVVASTTPGRYEVNIVLNPNLDQSQLALEKEIIQRALENYGARVEKVEELGLRRLAYPIAK”: the “soluble on expression in E. coli” value is given as “soluble”.

For the sequence “KPFNDEKTAKIAEEVQQFYESNATISLNEYLENVGELGYELYLTDGAEKSTYYGGAFRKKDLPDKTIKQVLDGETYHGIDSFDTGIFITGFFDNDVRNTIGVPVQADGKQLALFIRQDPEKQFGE”, the “soluble on expression in E. coli” value is “not soluble”.

Turning to “MGSDKIHHHHHHMTDQTAARACGIDFGTSNSTVGWLRPGHDTLLQLEDGKITLPSVVFFNYEEDHSRFGRAALAEYIDGFEGRLMRSLKSLLGSSLIDSQTEVQGKALPFRHLLKLFIQELKLRAEGAAGREFEQVVLGRPVYFVDDNPQADKLAQDTLADIARQVGFKEISFQLEPIAAAFDYESNIQKEELVLIVDIGGGTSDFTLIRLSPERRSHAERRDDILATGGVHIGGTDFDRQLSLHGVMPLFGFKTRLRNNAEMPSSQYFNLATWHTINFAYTRKAWMDLQDVHRDAAEPEKLDRLFKLIQERAGHWLAMEVEAAKIALSDRDSHRLALDAIERGLHCDLSRADFETSISALLDRVGGTVGKLLADSGLKAQDVDTVFFTGGSSGVPALRDGIRALLPNARHVEGNLFGSIGSGLAIEAKKRYG”, the “soluble on expression in E. coli” value was “not soluble”.

Regarding “MEVTNGLNLKDTELRLGLPGAQEEQQLELSCVRSNNKRKNNDSTEESAPPPAKTQIVGWPPVRSNRKNNNNKNVSYVKVSMDGAPYLRKIDLKMYKNYPELLKALENMFKFTVGEYSEREGYKGSGFVPTYEDKDGDWMLVGDVPWDMFSSSCQKLRIMKGSEAPTAL”, the “soluble on expression in E. coli” value is given as “not soluble”.

Regarding “MDVTNDDYIRLLSALLPPGPVWSASDPAIAGAAPSLTRVHQRADALMRELDPRTTTELINRWERLCGLPDECIPAGTQTLRQRQQRLDAKVNLAGGINEDFYLAQLAALGRPDATITRYDKSTFTCSSACTDAVNAPEWRYYWQVNMPATTNSTWMTCGDPCDSALRIWGDTVVECVLNKLCPSHTYVIFKYPE”, the “soluble on expression in E. coli” value was “soluble”.

In the case of “ASASYYEQYHSLNEIYSWIEFITERHPDMLTKIHIGSSFEKYPLYVLKVSGKEQAAKNAIWIDCGIHAREWISPAFCLWFIGHITQFYGIIGQYTNLLRLVDFYVMPVVNVDGYDYSWKKNRMWRKNRSFYANNHCIGTDLNRNFASKHWCEEGASSSSCSETYCGLYPESEPEVKAVASFLRRNINQIKAYISMHSYSQHIVFPYSYTRSKSKDHEELSLVASEAVRAIEKTSKNTRYTHGHGSETLYLAPGGGDDWIYDLGIKYSFTIELRDTGTYGFLLPERYIKPTCREAFAAVSKIAWHVIRNV”, the “soluble on expression in E. coli” value is “soluble”.

With “GVKCEPFEHLVIDTPQDFSGAIIERLGKRKAEMKAMNPMSDGYTRLEFEIPARGLIGYRSEFLTDTKGEGVMNHSFLEFRPFSGSVESRKNGALISMENGEATAFSLFNIQERGTLFINPQTKVYVGMV”, the “soluble on expression in E. coli” value is given as “not soluble”.

With “QCSSEVTARYKATLLKGNSLTDLTGGFGIDCAFLAARFKSATYVERQQELCEIAAHNFPILNLNHINVKNEDGVSYLQAMSPVDCIFLDPARRNEHGGKTVAISDCEPDVAELEELLLNKAEQVMVKLSPM”, the “soluble on expression in E. coli” value is “not soluble”.

Regarding “MGSDKIHHHHHHLSPSVYPKSMADMETIVTSVYANMVAVPLYGKRVMAKGTFCVDHTVDMAWTGDANWNQLATNQVTSDNAYIGTLWIGYYKMISCANTVLEQLERIDKEKFTDADLARLSQMKGEALFWRGWAHQQLVAFFGEGYPCNGDGDKKGVPVRLQVASTPDMLNIERSTVAEVYDQILKDYEAAKLLLPAVWEERADYPRPTSVAVASYIGQANLYMGNYDAAKKALKEVIDSSGKELLPFNEYAKMFNEDQEKFNRESILEINFRNGDTSGYFWYGEGSQYGLIAALCFQNASGDVEAAGWGNIFFHDANIKRFNGDPRLDIAALRPGTPVIMNGQQTQVLKYKDTEADIQGWSMRKYNPLKSTVNELNLGVGINMYLMRLADVYLMYAEACQATGDEVNARNYMNLVRRRAYNGDSSHDITASGEALRDAIREERFMEFCGEGVQHWQDVCRWKVLDEEISRWYGKTRVGNPHYDAKDLYFPIPKVEMENNPNMTQSIGYENE”, the “soluble on expression in E. coli” value is on record as “not soluble”.

For the sequence “MDKKIIGIDLGGTTIKFAILTTDGVVQQKWSIETNILEDGKHIVPSIIESIRHRIDLYNMKKEDFVGIGMGTPGSVDIEKGTVVGAYNLNWTTVQPVKEQIESALGIPFALDNDANVAALGERWKGAGENNPDVIFITLGTGVGGGIVAAGKLLHGVAGCAGEVGHVTVDPNGFDCTCGKRGCLETVSSATGVVRVARHLSEEFAGDSELKQAIDDGQDVSSKDVFEFAEKGDHFALMVVDRVCFYLGLATGNLGNTLNPDSVVIGGGVSAAGEFLRSRVEKYFQEFTFPQVRNSTKIKLAELGNEAGVIGAASLALQFSKEK”, the “soluble on expression in E. coli” value is listed as “soluble”.

As for “MKDDRQKASVLAVRMIPNVDLAMCKEFSMPEGHRSIGLITSDCDDVTYTALDDATKKADIKVVYAKSFYGGAANANTKLAGEVIGIISGPNPAEVKSGLSAVVDFVENEAAFISANEDDSIAYYAHCISRTGSYLSEVAGIPEGESIAYLIAPPLEAMYALDVALKSANVELVAFYGPPSETNFGGGLLTGSQSACKAACDAFAEAVKAVAANPLGY”, the “soluble on expression in E. coli” value is reported as “not soluble”.

On to “MQWETVIGLEIHAQLATQSKIFSGSSTAFGAAPNTQASLVDLAMPGTLPVLNEEAVRMACLFGLAIDARIDRQNVFARKNYFYPDLPKGYQTSQMDHPIVGKGHLDITLEDGTTKRIGITRAHLEEDAGKSLHEDFQGMSGIDLNRAGTPLLEIVSEPDIRSAKEAVAYVKAIHALVRYLGICDGNMAEGSLRCDCNVSVRPKGQAEFGTRAEIKNVNSFRFIEKAINHEIQRQIELIEDGGKVVQETRLYDPNKDETRSMRGKEEANDYRYFPCPDLLPVVIEPEYLAKLREQLPELPVQKRERFESQYGLSAYDASVLSASREMADYFEKVQGICGDAKLAANWVMVELGSLLNKDGLEIEQSPVSAEQLGGMILRIKDNTISGKLAKMVFEAMANGEGSADQIIEAKGLKQVTDSGAIEKMLDEVLAANAEQVEQYRAADEAKRGKMFGFFVGQAMKASKGKANPQQVNELLKKKLEA”, for which the “soluble on expression in E. coli” value is listed as “not soluble”.

“MSLSSWVSESSTETDKYGKSSEGKLYGKSRLSAHPGGIFEPVPYMTSAISLFEYIRERFGYGIEILHDVHERISPIQGVWFAKQVEKYRLFFLEDLFSPEDQHYFEMVRQQCATPIAMGELYVSPNDVIPMMKNKLIDFIRIHISDIGGITPARKIATFGELMGIKTAWHGPGDTSPVGHAANLALNLNSQNFGIQEAAIFGENSKEVFPGCPELRDGMMWSNGKPGLGIDINEELAKKFPFKERVWGGAWEGHHHHHH”: the “soluble on expression in E. coli” value was “not soluble”.

The values above are taken from the DeepSol protein solubility set.
